# Measurements: article doi:10.1101/2021.06.01.446150
# How the values were obtained:
# [1] = molecular target: human ghrelin O-acyltransferase (hGOAT), FLAG-tagged, wild type (human) (UniProt Q96T53)
# [2] = molecular target: endogenous hGOAT of prostate cancer cells (human (endogenous in 22Rv1 and LNCaP)) (UniProt Q96T53); test: confocal imaging of fluorescent ligand binding and uptake by cells
substance,measurement,setting,value
H-GS-Dap-Nal-1-LSPTK(SulfoCy5)-NH2 (ligand 15) (peptide),inhibition of hGOAT activity by ligand 15,[1],17 nM
same,percent of cells exhibiting ligand binding,[2],100%
